Publication PMC6715182, “Helicobacter pylori senses bleach (HOCl) as a chemoattractant using a cytosolic chemoreceptor” (PLoS Biology, 2019)

Legend:
[1] = tested on: Nc1ncnc2c1ncn2[C@@H]1O[C@H](COP(=O)(O)OP(=O)(O)OP(=O)(O)O)[C@@H](O)[C@H]1O; assay: purified protein; details: Mg2+ ([…] MgCl2)
CheW (Escherichia coli) = CheW (Escherichia coli) (UniProt P0A964); details: cited from earlier work
[2] = biological target: Helicobacter pylori transducer-like protein D lacking the N-terminal His tag, TlpD(-His) (Helicobacter pylori (SS1 strain)) (UniProt B5Z6X0); assay: AUC; interference experiments, 3 x 28 uM TlpD(-His) in PBS (pH 7), 1 mM TCEP, 20 C, 55,000 rpm; KD from the integrated monomer and dimer peaks; dimer to monomers

CheA, sequence (P07363 whole entry): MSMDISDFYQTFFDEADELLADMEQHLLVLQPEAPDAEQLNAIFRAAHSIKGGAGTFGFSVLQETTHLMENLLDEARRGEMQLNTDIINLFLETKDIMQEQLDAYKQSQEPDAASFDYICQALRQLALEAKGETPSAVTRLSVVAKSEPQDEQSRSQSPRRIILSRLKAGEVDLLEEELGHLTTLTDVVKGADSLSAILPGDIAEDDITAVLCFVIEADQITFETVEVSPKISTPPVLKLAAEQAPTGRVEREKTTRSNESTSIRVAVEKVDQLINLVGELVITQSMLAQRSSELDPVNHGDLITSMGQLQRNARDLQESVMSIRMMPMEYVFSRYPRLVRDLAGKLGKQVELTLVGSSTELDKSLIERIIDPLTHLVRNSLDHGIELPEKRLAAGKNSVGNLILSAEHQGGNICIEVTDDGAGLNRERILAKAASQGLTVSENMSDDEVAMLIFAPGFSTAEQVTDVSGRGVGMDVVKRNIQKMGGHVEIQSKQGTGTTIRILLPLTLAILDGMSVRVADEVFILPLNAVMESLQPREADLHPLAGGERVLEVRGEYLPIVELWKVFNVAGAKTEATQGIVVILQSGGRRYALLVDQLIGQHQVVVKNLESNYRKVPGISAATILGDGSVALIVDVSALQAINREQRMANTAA

With CheA (Helicobacter pylori G27) the Km [1] was 136 µM.
For CheA (from UniProt P07363), the Kd (CheW (Escherichia coli)) is listed as 17 µM.
For “Helicobacter pylori transducer-like protein D lacking the N-terminal His tag, TlpD(-His) (from UniProt B5Z6X0 1-433) (receptor)”, the Kd [2] was 0.0657 µM.
